Test results: PMC12093452

Molecular target: Postsynaptic density lattice (PSDL) preparation (OG-11U-IS) (rat)
Test: negative-staining electron microscopy of grid-immobilised structures incubated with polymerizing tubulin; PSDL or PSD immobilised on the Formvar membrane of an EM grid, blocked with NGS and BSA at 0°C and 37°C, placed on a droplet of tubulin (ML116, 2 mg/mL, GTB, 1 mM GTP, 5% glycerol) polymerizing at 37°C; fixed with 1% glutaraldehyde, stained with nano-W

- percent of MT ends associated with PSDL and/or PSDL-like structures: 30.9%
Substance: Tubulin MAP-rich, ML116, Cytoskeleton Inc. (from UniProt P02550 1-451) (complex)
